The Km is the substrate concentration at which the rate is half of its maximum. By kcat is commonly meant the maximal rate divided by the concentration of active sites. Broadly, the kcat/Km is the second-order rate constant that governs catalysis at low substrate concentration.

In paper PMC4888466 one finds Km, kcat and kcat/Km data, which are given here for one protein.

Substrate in data set [1]: O=P(O)(O)O[C@H]1O[C@H](CO)[C@@H](O)[C@H](O)[C@H]1O
Briefly: purified protein. It is filed as biochemical, Caenorhabditis elegans. The settings on record: 1 mM UTP, 5 mM MgCl2, pH 7.5, 25°C.

Substrate in data set [2]: O=c1ccn([C@@H]2O[C@H](COP(=O)(O)OP(=O)(O)OP(=O)(O)O)[C@@H](O)[C@H]2O)c(=O)[nH]1
The experiment in a line: purified protein. In kind it is biochemical, Caenorhabditis elegans. The settings on record: 1 mM Glc-1-P, 5 mM MgCl2, pH 7.5, 25°C.

B1: UGP-1 (Caenorhabditis elegans) (protein)
chain: MSNDQLKSKLREFFDRQPDQSEKAHQDSKIFEVLYSQFLENQHCIDWNSWKFLEEKHQVTLKDLEPFDKSRFNILNKLAVIKLNGGLGTTMGCSKAKSLVEVREGYTFMDLAVLEHQKMCEAHNVDTPLYLMNSFYTDEDTKKYLAEKGYSNVKTFVQSKCPRLDAETKLPIEDENEDWGDDAWCPPGHGNIFQSLQNSGVLDQLLADGREIIFVSNIDNTGANTDLQIVQLMLDKNVDYIMECTPKTQVDVKGGTLIDIGGRMMHLEMPQVPAENLPDFCSTKVFKIFNTNNIYVNLKAVKKLLPDIKSEIIVNKKTIRSREVLQLEFSIGGCIKNFDNALCVHVERKRFRPVKNLGDLLSLRSTLCDLDHSTFKVHHNHELGAPPVISLDPSIYNSVEVVDLKFPHPLVMDNCSEFAVVGDVTFGKNVKLSGKVTVNGKTESPGVVPDGTVLKDQEYIAE
Turning to B1, in the data set “purified protein [1]”, the Km was 77.65 ± 7.73 µM, the kcat worked out at 23 ± 0.65 s⁻¹ and the kcat/Km was determined as 300000 ± 31000 M⁻¹ s⁻¹. For the same protein, in “purified protein [2]”, the Km turned out to be 13.85 ± 2.95 µM, the catalytic constant (kcat) came to 20 ± 0.7 s⁻¹ and the kcat/Km was determined as 1.45e+06 ± 310000 M⁻¹ s⁻¹.
